In PMC3098718:
Where “and” joins values, the source holds several entries; their conditions need not be identical. Equal entries are not always repeated. Where two headings read alike, the source gives them in different places.

Tests used:
[1] = target: FLAG::NOS-3 (S644E, T648E), phospho-mimetic (C. elegans); assay: pull-down
[2] = target: FLAG::NOS-3 (S644E, T648E), phospho-mimetic (C. elegans); assay: pull-down; remark: listed apart in the source

fold reduction of FBF-1 binding compared to wild-type NOS-3 [1]: 14 fold
fold reduction of FBF-1 binding compared to wild-type NOS-3 [2]: 17 fold and > 20 fold
B1: FBF-1 (natural protein)
chain: MDQSKMRYTNQFRKTPQKPTSTEVGNHHTPAHSPMAQHETSMWNFNSLNPYFSMLNMNDGMNYARHQQNHIVTSRPPTPLTDLMSLRSFQSFPNVFMPVSRSRTSSFIQSDTDSSRLEPDDFSQNVRYCSTEIDRNNSSSKNDHLKYSRPALSRNSRSFTRSNNVLPTWSLDSNGEMRSRLSLSEVLDSGDLMKFAVDKTGCQFLEKAVKGSLTSYQKFQLFEQVIGRKDDFLKLSTNIFGNYFVQEIIGMSLTTYDDDNIKRQEKLKNFISSQMTDMCLDKFACRVIQSSLQNMDLSLACKLVQALPRDARLIAICVDQNANHVIQKVVAVIPLKNWEFIVDFVATPEHLRQICFDKYGCRVVQTIIEKLTADSINVDLTSAAQHLRERALQRLMTSVTNRCQELATNEYANYIIQHIVSNDDLAVYRECIIEKCLMRNLLSLSQEKFASHVVEKAFLHAPMELLAEMMDEIFDGYMPHPGTGKDALDIMMFHQFGNYVVQCMLTICCDAVSGRRQTKEGSYDHANSFQVWLKKLHSRVTKERHRLSRFSSGKKMIETLAHLRSTHPIYGLQSSGHESFKTDCFSTASEHDGLELEKNGIEEGNLRLMRTFSP
modifications: S^35 labeled methionine
